Measured values: US20240270846A1 (published 2024)

Target: T1, CD3 epsilon homodimer protein (UniProt P07766 23-126)
T1 construct: Immobilized on Sensor chip CM4 by amine coupling; construct not described; also called CD3 (CD3 epsilon)
Experiment: SPR Biacore T200, CD3 epsilon homodimer on CM4 chip, antibody as analyte;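 further: Amine-coupled CD3 epsilon homodimer, run at 25 °C in HBS-EP+ buffer, ratio is bound amount of each single-residue H chain variant over that of the parent antibody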

T1 sequence (P07766 23-126): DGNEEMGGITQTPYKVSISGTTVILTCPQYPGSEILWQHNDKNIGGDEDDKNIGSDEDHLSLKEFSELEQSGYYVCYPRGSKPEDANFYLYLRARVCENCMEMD

Row | Binder | ratio of amounts bound (Y/X vs CE115HA000)
1 | CE115HA000 D101I one-arm antibody (antibody, human IgG1, kappa, L234A L235A, N297A, name in Kabat numbering, one-arm antibody (one Fab)) heavy: QVQLVESGGGVVQPGRSLRLSCAASGFTFSNAWMHWVRQAPGKGLEWVAQIKAKSNNYATYYAESVKGRFTISRDDSKNSLYLQMNSLKTEDTAVYYCRYVHYGAYYGVIAWGQGTTVTVSSASTKGPSVFPLAPSSKSTSGGTAALGCLVKDYFPEPVTVSWNSGALTSGVHTFPAVLQSSGLYSLSSVVTVPSSSLGTQTYICNVNHKPSNTKVDKKVEPKSCDKTHTCPPCPAPEAAGGPSVFLFPPKPKDTLMISRTPEVTCVVVDVSHEDPEVKFNWYVDGVEVHNAKTKPREEQYASTYRVVSVLTVLHQDWLNGKEYKCKVSNKALPAPIEKTISKAKGQPREPQVYTLPPSRCELTKNQVSLSCAVKGFYPSDIAVEWESNGQPENNYKTTPPVLDSDGSFFLVSKLTVDKSRWQQGNVFSCSVMHEALHNHYTQKSLSLSPDYKDDDDK EPKSSDKTHTCPPCPAPELLGGPSVFLFPPKPKDTLMISRTPEVTCVVVDVSHEDPEVKFNWYVDGVEVHNAKTKPREEQYNSTYRVVSVLTVLHQDWLNGKEYKCKVSNKALPAPIEKTISKAKGQPREPQVCTLPPSRDELTKNQVSLWCLVKGFYPSDIAVEWESNGQPENNYKTTPPVLDSDGSFFLYSKLTVDKSRWQQGNVFSCSVMHEALHNRYTQKSLSLSP light: DIVMTQSPLSLPVTPGEPASISCRSSQSLVHSNRNTYLHWYQQKPGQAPRLLIYKVSNRFSGVPDRFSGSGSGTDFTLKISRVEAEDVGVYYCGQGTQVPYTFGQGTKLEIKRTVAAPSVFIFPPSDEQLKSGTASVVCLLNNFYPREAKVQWKVDNALQSGNSQESVTEQDSKDSTYSLSSTLTLSKADYEKHKVYACEVTHQGLSSPVTKSFNRGEC | 1.18
2 | CE115HA000 D101L one-arm antibody (antibody, human IgG1, kappa, L234A L235A, N297A, name in Kabat numbering, one-arm antibody (one Fab)) heavy: QVQLVESGGGVVQPGRSLRLSCAASGFTFSNAWMHWVRQAPGKGLEWVAQIKAKSNNYATYYAESVKGRFTISRDDSKNSLYLQMNSLKTEDTAVYYCRYVHYGAYYGVLAWGQGTTVTVSSASTKGPSVFPLAPSSKSTSGGTAALGCLVKDYFPEPVTVSWNSGALTSGVHTFPAVLQSSGLYSLSSVVTVPSSSLGTQTYICNVNHKPSNTKVDKKVEPKSCDKTHTCPPCPAPEAAGGPSVFLFPPKPKDTLMISRTPEVTCVVVDVSHEDPEVKFNWYVDGVEVHNAKTKPREEQYASTYRVVSVLTVLHQDWLNGKEYKCKVSNKALPAPIEKTISKAKGQPREPQVYTLPPSRCELTKNQVSLSCAVKGFYPSDIAVEWESNGQPENNYKTTPPVLDSDGSFFLVSKLTVDKSRWQQGNVFSCSVMHEALHNHYTQKSLSLSPDYKDDDDK EPKSSDKTHTCPPCPAPELLGGPSVFLFPPKPKDTLMISRTPEVTCVVVDVSHEDPEVKFNWYVDGVEVHNAKTKPREEQYNSTYRVVSVLTVLHQDWLNGKEYKCKVSNKALPAPIEKTISKAKGQPREPQVCTLPPSRDELTKNQVSLWCLVKGFYPSDIAVEWESNGQPENNYKTTPPVLDSDGSFFLYSKLTVDKSRWQQGNVFSCSVMHEALHNRYTQKSLSLSP light: DIVMTQSPLSLPVTPGEPASISCRSSQSLVHSNRNTYLHWYQQKPGQAPRLLIYKVSNRFSGVPDRFSGSGSGTDFTLKISRVEAEDVGVYYCGQGTQVPYTFGQGTKLEIKRTVAAPSVFIFPPSDEQLKSGTASVVCLLNNFYPREAKVQWKVDNALQSGNSQESVTEQDSKDSTYSLSSTLTLSKADYEKHKVYACEVTHQGLSSPVTKSFNRGEC | 0.62
3 | CE115HA000 D101K one-arm antibody (antibody, human IgG1, kappa, L234A L235A, N297A, name in Kabat numbering, one-arm antibody (one Fab)) heavy: QVQLVESGGGVVQPGRSLRLSCAASGFTFSNAWMHWVRQAPGKGLEWVAQIKAKSNNYATYYAESVKGRFTISRDDSKNSLYLQMNSLKTEDTAVYYCRYVHYGAYYGVKAWGQGTTVTVSSASTKGPSVFPLAPSSKSTSGGTAALGCLVKDYFPEPVTVSWNSGALTSGVHTFPAVLQSSGLYSLSSVVTVPSSSLGTQTYICNVNHKPSNTKVDKKVEPKSCDKTHTCPPCPAPEAAGGPSVFLFPPKPKDTLMISRTPEVTCVVVDVSHEDPEVKFNWYVDGVEVHNAKTKPREEQYASTYRVVSVLTVLHQDWLNGKEYKCKVSNKALPAPIEKTISKAKGQPREPQVYTLPPSRCELTKNQVSLSCAVKGFYPSDIAVEWESNGQPENNYKTTPPVLDSDGSFFLVSKLTVDKSRWQQGNVFSCSVMHEALHNHYTQKSLSLSPDYKDDDDK EPKSSDKTHTCPPCPAPELLGGPSVFLFPPKPKDTLMISRTPEVTCVVVDVSHEDPEVKFNWYVDGVEVHNAKTKPREEQYNSTYRVVSVLTVLHQDWLNGKEYKCKVSNKALPAPIEKTISKAKGQPREPQVCTLPPSRDELTKNQVSLWCLVKGFYPSDIAVEWESNGQPENNYKTTPPVLDSDGSFFLYSKLTVDKSRWQQGNVFSCSVMHEALHNRYTQKSLSLSP light: DIVMTQSPLSLPVTPGEPASISCRSSQSLVHSNRNTYLHWYQQKPGQAPRLLIYKVSNRFSGVPDRFSGSGSGTDFTLKISRVEAEDVGVYYCGQGTQVPYTFGQGTKLEIKRTVAAPSVFIFPPSDEQLKSGTASVVCLLNNFYPREAKVQWKVDNALQSGNSQESVTEQDSKDSTYSLSSTLTLSKADYEKHKVYACEVTHQGLSSPVTKSFNRGEC | 0.63

Second part, the binder after the results:

Row | ratio of amounts bound (Y/X vs CE115HA000) | Binder
4 | 2.02 | CE115HA000 D101N one-arm antibody (antibody, human IgG1, kappa, L234A L235A, N297A, name in Kabat numbering, one-arm antibody (one Fab)) heavy: QVQLVESGGGVVQPGRSLRLSCAASGFTFSNAWMHWVRQAPGKGLEWVAQIKAKSNNYATYYAESVKGRFTISRDDSKNSLYLQMNSLKTEDTAVYYCRYVHYGAYYGVNAWGQGTTVTVSSASTKGPSVFPLAPSSKSTSGGTAALGCLVKDYFPEPVTVSWNSGALTSGVHTFPAVLQSSGLYSLSSVVTVPSSSLGTQTYICNVNHKPSNTKVDKKVEPKSCDKTHTCPPCPAPEAAGGPSVFLFPPKPKDTLMISRTPEVTCVVVDVSHEDPEVKFNWYVDGVEVHNAKTKPREEQYASTYRVVSVLTVLHQDWLNGKEYKCKVSNKALPAPIEKTISKAKGQPREPQVYTLPPSRCELTKNQVSLSCAVKGFYPSDIAVEWESNGQPENNYKTTPPVLDSDGSFFLVSKLTVDKSRWQQGNVFSCSVMHEALHNHYTQKSLSLSPDYKDDDDK EPKSSDKTHTCPPCPAPELLGGPSVFLFPPKPKDTLMISRTPEVTCVVVDVSHEDPEVKFNWYVDGVEVHNAKTKPREEQYNSTYRVVSVLTVLHQDWLNGKEYKCKVSNKALPAPIEKTISKAKGQPREPQVCTLPPSRDELTKNQVSLWCLVKGFYPSDIAVEWESNGQPENNYKTTPPVLDSDGSFFLYSKLTVDKSRWQQGNVFSCSVMHEALHNRYTQKSLSLSP light: DIVMTQSPLSLPVTPGEPASISCRSSQSLVHSNRNTYLHWYQQKPGQAPRLLIYKVSNRFSGVPDRFSGSGSGTDFTLKISRVEAEDVGVYYCGQGTQVPYTFGQGTKLEIKRTVAAPSVFIFPPSDEQLKSGTASVVCLLNNFYPREAKVQWKVDNALQSGNSQESVTEQDSKDSTYSLSSTLTLSKADYEKHKVYACEVTHQGLSSPVTKSFNRGEC
5 | 0.2 | CE115HA000 D101P one-arm antibody (antibody, human IgG1, kappa, L234A L235A, N297A, name in Kabat numbering, one-arm antibody (one Fab)) heavy: QVQLVESGGGVVQPGRSLRLSCAASGFTFSNAWMHWVRQAPGKGLEWVAQIKAKSNNYATYYAESVKGRFTISRDDSKNSLYLQMNSLKTEDTAVYYCRYVHYGAYYGVPAWGQGTTVTVSSASTKGPSVFPLAPSSKSTSGGTAALGCLVKDYFPEPVTVSWNSGALTSGVHTFPAVLQSSGLYSLSSVVTVPSSSLGTQTYICNVNHKPSNTKVDKKVEPKSCDKTHTCPPCPAPEAAGGPSVFLFPPKPKDTLMISRTPEVTCVVVDVSHEDPEVKFNWYVDGVEVHNAKTKPREEQYASTYRVVSVLTVLHQDWLNGKEYKCKVSNKALPAPIEKTISKAKGQPREPQVYTLPPSRCELTKNQVSLSCAVKGFYPSDIAVEWESNGQPENNYKTTPPVLDSDGSFFLVSKLTVDKSRWQQGNVFSCSVMHEALHNHYTQKSLSLSPDYKDDDDK EPKSSDKTHTCPPCPAPELLGGPSVFLFPPKPKDTLMISRTPEVTCVVVDVSHEDPEVKFNWYVDGVEVHNAKTKPREEQYNSTYRVVSVLTVLHQDWLNGKEYKCKVSNKALPAPIEKTISKAKGQPREPQVCTLPPSRDELTKNQVSLWCLVKGFYPSDIAVEWESNGQPENNYKTTPPVLDSDGSFFLYSKLTVDKSRWQQGNVFSCSVMHEALHNRYTQKSLSLSP light: DIVMTQSPLSLPVTPGEPASISCRSSQSLVHSNRNTYLHWYQQKPGQAPRLLIYKVSNRFSGVPDRFSGSGSGTDFTLKISRVEAEDVGVYYCGQGTQVPYTFGQGTKLEIKRTVAAPSVFIFPPSDEQLKSGTASVVCLLNNFYPREAKVQWKVDNALQSGNSQESVTEQDSKDSTYSLSSTLTLSKADYEKHKVYACEVTHQGLSSPVTKSFNRGEC
6 | 1.2 | CE115HA000 D101M one-arm antibody (antibody, human IgG1, kappa, L234A L235A, N297A, name in Kabat numbering, one-arm antibody (one Fab)) heavy: QVQLVESGGGVVQPGRSLRLSCAASGFTFSNAWMHWVRQAPGKGLEWVAQIKAKSNNYATYYAESVKGRFTISRDDSKNSLYLQMNSLKTEDTAVYYCRYVHYGAYYGVMAWGQGTTVTVSSASTKGPSVFPLAPSSKSTSGGTAALGCLVKDYFPEPVTVSWNSGALTSGVHTFPAVLQSSGLYSLSSVVTVPSSSLGTQTYICNVNHKPSNTKVDKKVEPKSCDKTHTCPPCPAPEAAGGPSVFLFPPKPKDTLMISRTPEVTCVVVDVSHEDPEVKFNWYVDGVEVHNAKTKPREEQYASTYRVVSVLTVLHQDWLNGKEYKCKVSNKALPAPIEKTISKAKGQPREPQVYTLPPSRCELTKNQVSLSCAVKGFYPSDIAVEWESNGQPENNYKTTPPVLDSDGSFFLVSKLTVDKSRWQQGNVFSCSVMHEALHNHYTQKSLSLSPDYKDDDDK EPKSSDKTHTCPPCPAPELLGGPSVFLFPPKPKDTLMISRTPEVTCVVVDVSHEDPEVKFNWYVDGVEVHNAKTKPREEQYNSTYRVVSVLTVLHQDWLNGKEYKCKVSNKALPAPIEKTISKAKGQPREPQVCTLPPSRDELTKNQVSLWCLVKGFYPSDIAVEWESNGQPENNYKTTPPVLDSDGSFFLYSKLTVDKSRWQQGNVFSCSVMHEALHNRYTQKSLSLSP light: DIVMTQSPLSLPVTPGEPASISCRSSQSLVHSNRNTYLHWYQQKPGQAPRLLIYKVSNRFSGVPDRFSGSGSGTDFTLKISRVEAEDVGVYYCGQGTQVPYTFGQGTKLEIKRTVAAPSVFIFPPSDEQLKSGTASVVCLLNNFYPREAKVQWKVDNALQSGNSQESVTEQDSKDSTYSLSSTLTLSKADYEKHKVYACEVTHQGLSSPVTKSFNRGEC
